Measured values: the nanobody polyreactivity screen of Harvey et al. (2022)

Test: yeast display, Sf9 membrane polyspecificity reagent, FACS + sequencing; frameworks hold sequencing errors
Method in brief: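 A synthetic nanobody library was expressed on Saccharomyces cerevisiae BJ5465 by galactose induction for 36–48 hours. The library was stained for 1 hour at 4 °C with 10% biotinylated, detergent-solubilized Sf9 membrane reagent and enriched with streptavidin microbeads before FACS. Low and high (top ~1%) gates were set on anti-HA fluorescence for expression and streptavidin fluorescence for reagent binding, and each polyreactivity label reflects the gate of origin.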
With “QVQLVESWGGLVQAGGSLRLSCAASGSTFGKYAMGWYRQAPGKERELVAAISYRGGRTFYADSVKGRFTISRDNAKNTVYLQMNSLKPEDTAVYYCAAYPGVSRGTGPRRYDYWGQGTQVTVSS” the “polyreactivity (PSR sort gate)” value was “high polyreactivity”.
In the case of “QVQLVESWGGLVQAGGSLRLSCAASGSTFSPYAMGWYRQAPGKEREMVATINRGGGSTNYADSVKGRFTISRDNAKNTVYLQMNSRKPEDTAVYYCARVNAAVGYYYRYEYWGHGTQVTVSS”, the “polyreactivity (PSR sort gate)” value is reported as “high polyreactivity”.
In the case of “QVQLVESWGGLVQAGGSLRLSCAASGSTFYRYAMGWYRQAPGKERELVAAISRSGGNTFYADSVKGRFTISRDNAKNTVYLQMNSLKQEDTAVYYCAAEAHLACYYRYYGGYGYDYWGQGTQVTVSW”, the “polyreactivity (PSR sort gate)” value is reported as “high polyreactivity”.
With “QVQLVESWGGLVQAGGSLRLSCAASGSTITAKAMGWYRQAPGKERELVAAITKSGGDTYYADSVKGRFTISRDNAKNTVYLQMNSLKPEDTAVYYCAARIRPYAYRSLYGYWGQGTQVTVSS” the “polyreactivity (PSR sort gate)” value was “low polyreactivity”.
In the case of “QVQLVESWGGLVQAGGSLRLSCAASGSTMRYYAMGWYRQAPGKERELVAAISSRGGRTYYSDSVKGRFTISRDNAKNTVYLQMNSLKPEDTAVYYCAARARERYYWGQGNQVTVSS”, the “polyreactivity (PSR sort gate)” value is reported as “high polyreactivity”.
With “QVQLVESWGGLVQAGGSLRLSCADSGRTFTVNAMGWYRQAPGKETEFVAAISGRSGRTSYADSVKGRFTISRDNAKNTVYLQMNCLKPEDTAVYYCNASGGYSTGSRYDYWGQGTQVTVSS” the “polyreactivity (PSR sort gate)” value was “high polyreactivity”.
In the case of “QVQLVESWGGLVQAGGSLRLSCADSGSIFGYYAMGWSRHAPGKETELVAAISSGGRTDYADSVKGRFTISRDNAKNTVYLQMNSRKQEDTAVYYCAALQRTGPYAGSSGYWGQGTQVTVSS”, the “polyreactivity (PSR sort gate)” value is reported as “high polyreactivity”.
In the case of “QVQLVESWGGLVQAGGSLRLSCVPPDSSSLTILWDGIDRRLGKKGSWLPVLTSRGVGTYYADSVKGRFTNSRDNAKNTFYLQMNSMKPEDSAVYYCNARYEVFYRYDYWGHGTQVTVSS”, the “polyreactivity (PSR sort gate)” value is reported as “low polyreactivity”.
For “QVQLVESWGGLVQAGGSLRLTCAASGRILWFYSMGWYRQAPGKERELVAAISSSSGRTYYADSVKGRYTISRDNAKNTVSLQMNSLKPEDTAVYYCAATHAVARPLEYDYWGQGTQVTVSS”, the “polyreactivity (PSR sort gate)” value was “low polyreactivity”.
For “QVQLVESWGGLVQAGGTLRLSCAASGGIFIDYTMGWYRQAPGKERELVAAITRGGSTYYADSVKGRFTISRDNAKNTVYLEMNSLIAEDTAVYYCAARANSPVGHNRFGYWGQGTQVTVSS”, the “polyreactivity (PSR sort gate)” value was “low polyreactivity”.
In the case of “QVQLVESWGGLVQAGGTLRLSCAASGRILYLNAMGWNRQAPGKEREFVAAISKSGGSTYYADSVKGRFTISRDNAMNSVYLQMNSLKPEDTAVYYCATRYRSAEYDFWGQGTQVTVSS”, the “polyreactivity (PSR sort gate)” value is reported as “low polyreactivity”.
With “QVQLVESWGGLVQAGLSLRLSCAASGIMGWYRQAPGKERELVDAITYTGDSTFYADSVKGRFTISRDNPKNTVYVQINSLKAEDTAVYDCATKYGTSNWYNTYYYWGQGTQVTVSS” the “polyreactivity (PSR sort gate)” value was “low polyreactivity”.
For “QVQLVESWGGVVQAGVSLRLSCAASGINFYSYAMGWYRQAPGKERELVAAISNNGGSTYADSVKGRFTISRDNAKNTVYLQMNSLKPEDTAVYYCAADPTGGVGFDGYYWGQGTQVSVSS”, the “polyreactivity (PSR sort gate)” value was “low polyreactivity”.
With “QVQLVESWGRLVQAGGSLRLTCAASGFIFSSYAMGWYRQAPGKERELVAAISQSGGRTYYADSVKGRFTISRDNAKNTVYLQMNSLKPEDTAVYYCNTLYTIGAVYYWGQGTQVTVSS” the “polyreactivity (PSR sort gate)” value was “high polyreactivity”.
With “QVQLVESWGVLVQAGGSLRLSCAASGSIIVNYDMGWYRQARGKERELVAAITWGGGRTYYADSVKRRFTISRDNAKNSVYLQMNSLKPEDTAVYYCAADFSWVINPYEYCGQGTQVTVSS” the “polyreactivity (PSR sort gate)” value was “low polyreactivity”.
For “QVQLVETAAGLVKSGGSLPLSCAASGRIFKRYAMGWYRQAPGQARELVATINLSCGSTYYADSVKGRFTISRDNAKNTGYLQMNSRKPEDTAVYYCAYDAAGAPEGPYDYWGQGTQVTVSS”, the “polyreactivity (PSR sort gate)” value was “high polyreactivity”.
With “QVQLVETAGGIVQAGGSLRLSCAASGRTNKYYAMGWYRQAPGKEREWVAVISWSGGSTYYADSVKGRFTISRDNAKNTVYLQMNSLKPEETAVYYCAARKRAQQGTRDHDYWGQGTQVTVSS” the “polyreactivity (PSR sort gate)” value was “high polyreactivity”.
In the case of “QVQLVETGAGLVQAGGSLRLSCAASGRTFDDNAMGWSRQATGEVRELVAAISSTGSTNYADSVKGRFTISRDNAKNTVYFQMNSLKPEDTAVYYCNTDRGHERAFYYWGQGTQVTVSS”, the “polyreactivity (PSR sort gate)” value is reported as “low polyreactivity”.
In the case of “QVQLVETGGCLVQAGGSLRLSCAASGSTFYLYAMGWNRQAPGKETDLVASISQSGGSTIYADSVKGRFTISRDNAKNTVYLHMNSLKPEDTAVYYFAAGAGYFRYPRSGVWYVTLYDYWGEGTQVTVSS”, the “polyreactivity (PSR sort gate)” value is reported as “high polyreactivity”.
With “QVQLVETGGGIVQAGGRLRLTCAASGSSFYSYAMGWYRQAPGKEMELVAAITTSGGNTLYADSVKGRFTISRDNAKNTVDLQMNSLKPEDTADYYCAADVFRGGDYEYDYWGQGTQVTVSS” the “polyreactivity (PSR sort gate)” value was “low polyreactivity”.
In the case of “QVQLVETGGGIVQAGGSLRLSCAASGITFQSNTMGWYRQSPGKERELVAAITWTGGRTYYADSVKGRFTISRDNAKNTVYLQMNSLTPEDTAVYYCNADGYAICYNGKLDYWGQGTQVTVSS”, the “polyreactivity (PSR sort gate)” value is reported as “high polyreactivity”.
For “QVQLVETGGGLVHAGGSLRLSCAASGSIFQGHAMGWYRQAPGKERELVAAISRNGGRTYYADSVKGRFTISRDNAKNTVYLQMNSLKPEDTAVYYCAAYHNVEYDYWGQGTQVTVSS”, the “polyreactivity (PSR sort gate)” value was “high polyreactivity”.
In the case of “QVQLVETGGGLVHAGVSLRLSCAASGSILSLNAMGWYRQAPGKERELVAVISNCGGSTYYADSVKGRFTISRDNAKNTVYFQMKSLNPEDTAVYYCAVALKYQRRYYYWGQGTQVTVSS”, the “polyreactivity (PSR sort gate)” value is reported as “high polyreactivity”.
In the case of “QVQLVETGGGLVQAGCSLRLSCASSGFIFVRNAMGRYRQAPGIERELVATINSGGGTNYADSVKWRFTISRDNAKNSVYFQMNSLKPDDTAVYYCAAGQTSPERYGLGYWGQGSQVTVSS”, the “polyreactivity (PSR sort gate)” value is reported as “low polyreactivity”.
In the case of “QVQLVETGGGLVQAGGSLRISCAASGFTFSSYVMGWYRQAPGKERELVAAITRGGGSTYYADSVKGRFTISRDNAKNTVYLQMNRLKPEDTAVYYCAARGWRYSYTSVLFDYCGQGTQVTVSS”, the “polyreactivity (PSR sort gate)” value is reported as “high polyreactivity”.
With “QVQLVETGGGLVQAGGSLRISCAASGIIFRNYAKGWYTQAPGKERELVADISWSGGTTYYADSVKGRFTISRDNEKHTVYLQMNSLKPEDTAVYYCAASSYRRQYGYWGQGTQVTVSS” the “polyreactivity (PSR sort gate)” value was “high polyreactivity”.
In the case of “QVQLVETGGGLVQAGGSLRLRCAASGSIFVPYTMGWYRQAPGKERELVASISYSGGTTYYADSEKGRFTISRDNAKNTVYLQMNSLKPEDTAVYYCAADWDESYSYRRYRHYDYWGQGTQLTVSS”, the “polyreactivity (PSR sort gate)” value is reported as “low polyreactivity”.
With “QVQLVETGGGLVQAGGSLRLSCAASARIFLGYTMGWYRKAPGKEMELVASITWSGGSTYYADSVKGRFTISRDNAKNTVYLQMNRLKPDVTAVYYCNAVYWVARGRYDYWGQGTQVTVSS” the “polyreactivity (PSR sort gate)” value was “high polyreactivity”.
With “QVQLVETGGGLVQAGGSLRLSCAASGFIFAYNAMGWYRQAPGKERELVAAISWSGGSTYYADSVKGRFTISRDNAKITVYLQMNCLKPEDTAVYYCNAVSYFGARYDYWGQGTQVTVSS” the “polyreactivity (PSR sort gate)” value was “high polyreactivity”.
With “QVQLVETGGGLVQAGGSLRLSCAASGFIFSTYAMGWSRQAPGKERELVAAISWSGGRTNYADSVKGRFTISRDHAKNTVYLQMNSLKPEDTAVYYCAVGGERGARIGSNHRGSRYDYWGQGTQVTVSS” the “polyreactivity (PSR sort gate)” value was “high polyreactivity”.
With “QVQLVETGGGLVQAGGSLRLSCAASGFTFGANVMGWYRPAPGKESELVAGITRSGDSTYYADSVKGRFTISRDNAKNTVYLQMNILKPEDTAVYYCAADVYDGEYILDYDYWGQGTQVTVSS” the “polyreactivity (PSR sort gate)” value was “low polyreactivity”.
In the case of “QVQLVETGGGLVQAGGSLRLSCAASGFTFKLYAMGWYRQAPGKERVLVAAISSSGGRTYYADSVKGRFTISRDNAKNTVYLQMNSLKPEDTAVYYCNAVRTVNDYHYDYWGQGTQVTVSS”, the “polyreactivity (PSR sort gate)” value is reported as “high polyreactivity”.
With “QVQLVETGGGLVQAGGSLRLSCAASGFTFRRYTMGWYRQAPGKERELVAAISGRGGRTYYADSVKGRFTISRDNAKNTVDLQMNSLKPEDTAVYYCAADTPYCQSSKYDYWGQGNQVTVSS” the “polyreactivity (PSR sort gate)” value was “high polyreactivity”.
For “QVQLVETGGGLVQAGGSLRLSCAASGFTFTVYATGWYRQAPGKERELVAAIRWSGGSTSYADSVKRRFTISRDNAKNTVYLQMNSLKPEDTAVYYCNARISDAHYQSNYFLVLYDYWGQGTQVTVSS”, the “polyreactivity (PSR sort gate)” value was “low polyreactivity”.
With “QVQLVETGGGLVQAGGSLRLSCAASGFTFYGYAMGWYRQAPGKERELVAAISSSGGRTYYADSVKGRFTISRDNAKNTVYLQMNSLKPEDTAVYYCAVDYYGKVGDDYLGQGTQVTVSS” the “polyreactivity (PSR sort gate)” value was “low polyreactivity”.
In the case of “QVQLVETGGGLVQAGGSLRLSCAASGFTYRRYAMGWYRQAPGKERELVAAINWNGDSTYYADSVKGRFTISRDNAKNTVYLQMNSLKPEDTAVYYCNAGWYGGRYSKFDYWGQGTQVTVSS”, the “polyreactivity (PSR sort gate)” value is reported as “high polyreactivity”.
In the case of “QVQLVETGGGLVQAGGSLRLSCAASGGIFGRNAMGWYRQAPGKERELVASISKSGGSTYYADSVKGRFTISRDNAKNTVYLQMNSLKPEDTAVYYCAARYSYFNWDNYYWGQGTQVTVSS”, the “polyreactivity (PSR sort gate)” value is reported as “high polyreactivity”.
With “QVQLVETGGGLVQAGGSLRLSCAASGGIFSYAMVWYRQAPGKEMELVADINSDGSTTYADSVKGRFTISRDNAKNTVYLQMNRLKPEDTAVYFCAVDVSVNWPLLERYEYWGQGSQVTVSS” the “polyreactivity (PSR sort gate)” value was “low polyreactivity”.
With “QVQLVETGGGLVQAGGSLRLSCAASGIIFREYAMGWYRQAPGKEMELVAAITRSGGSTNYADSVKGRFTISRDNAKNTVYLLMNSLKPEDTAVYYCASDYQRNDFRWYDYWGQGTLVTVSS” the “polyreactivity (PSR sort gate)” value was “low polyreactivity”.
For “QVQLVETGGGLVQAGGSLRLSCAASGITFWYYAMGCDRQAPGKERELVAVISRGGSTYYADSVKGRFTISRDNAKNTVYLQMNSLKPEDTAVYYCAARPRWYTYNRQEYDYWGQGTQVTLSS”, the “polyreactivity (PSR sort gate)” value was “high polyreactivity”.
In the case of “QVQLVETGGGLVQAGGSLRLSCAASGITFYYYAMGWYRQAPGKERELVAAINSGGITNYADSVKGRFTLSRDIAKKTVYLQMNSLKPEDTAVYYCAASSGFRYRYGYWGQGTQVTVSS”, the “polyreactivity (PSR sort gate)” value is reported as “high polyreactivity”.
With “QVQLVETGGGLVQAGGSLRLSCAASGRIFGPNSKGWYRQAPGKEREFVASIRYSGGSTYYADSVKGRFTISRDYAKNTVYLQMHSLKPEDTAVYYCAARTVTLSYLYYYWGQGTHVTVSS” the “polyreactivity (PSR sort gate)” value was “high polyreactivity”.
In the case of “QVQLVETGGGLVQAGGSLRLSCAASGRIFQWYAMGWYRQAPGKERELVAAINNGGSTNYADSVKGRFTISRDNAKNTVYLQMNSLKPEDTAVYYCAAELTFVAQGWFVTYDYWGQGTQVTVSS”, the “polyreactivity (PSR sort gate)” value is reported as “high polyreactivity”.
